Results taken from patent US5460942A, “The catalytic moiety of the glucose-6-phosphatase system: the gene and protein and related mutations” (The United States of America as represented by the …, priority 1993, dated 1995).
Where a chain is given by its changes, count along the chain named. Numbers in names are those of the source.

Columns and labels:
[1] = molecular target: T1, murine G-6-Pase (Mus musculus, UniProt P35576); conditions: read-out: Ki values for vanadate observed in the present study; both microsomal preparations (transfected COS-1 cells and adult mouse livers)
T1 sequence (P35576 1-357): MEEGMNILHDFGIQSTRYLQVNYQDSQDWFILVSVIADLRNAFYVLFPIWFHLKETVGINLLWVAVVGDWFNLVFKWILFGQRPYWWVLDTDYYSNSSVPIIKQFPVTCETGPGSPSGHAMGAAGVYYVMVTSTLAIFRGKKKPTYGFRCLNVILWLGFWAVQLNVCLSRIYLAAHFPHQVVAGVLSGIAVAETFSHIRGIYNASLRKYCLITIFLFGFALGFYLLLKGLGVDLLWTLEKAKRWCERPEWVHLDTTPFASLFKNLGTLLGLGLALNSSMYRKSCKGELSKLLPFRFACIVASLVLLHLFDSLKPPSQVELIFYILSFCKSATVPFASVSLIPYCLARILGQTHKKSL
Method: COS-1 cells were grown at 37° C. in HEPES-buffered Dulbecco modified minimal essential medium supplemented with streptomycin, penicillin, and 4% fetal bovine serum. […] Mock transfections of COS-1 cultures with the pSVL vector were used as controls.
(§2) Microsomal membranes were isolated by the method of Burchell et al. supra. Samples were taken from either Swiss Webster mice which had been fasted overnight or freshly prepared homogenates of pSVLmG-6-Pase-transfected COS-1 cells. Disrupted microsomal membranes were prepared by incubating intact membranes in 0.2% deoxycholate for 20 min at 0° C.
(§3) Phosphohydrolase activity was determined essentially as described by Burchell et al. Supra. […] Sample absorbance was determined at 820 nm and is related to the amount of phosphate released using a standard curve constructed by a stock of inorganic phosphate solution.

[2] = molecular target: glucose-6-P phosphohydrolase activity; conditions: read-out: Ki for vanadate reported; permeable hepatocytes or rat microsomes; cited from earlier work
[3] = molecular target: T2, mouse liver microsomal G-6-Pase (Mus musculus, UniProt P35576); assay: Phosphohydrolase assay, adult mouse liver microsomes; format: biochemical; conditions: competitive inhibitor of glucose-6-P phosphohydrolysis, read-out: Vanadate, Ki
T2 construct: hepatic G-6-Pase activities of microsomes isolated from adult mouse liver; from tissue; host or cells: liver microsomes of fasted Swiss Webster mice
T2 sequence (P35576 1-357): T1 sequence (P35576 1-357)
Method: as §2, §3

[4] = molecular target: human liver microsomal G-6-Pase (Homo sapiens, UniProt P35575); conditions: read-out: Vanadate K1; human liver microsomes
human liver microsomal G-6-Pase, sequence (P35575 whole entry): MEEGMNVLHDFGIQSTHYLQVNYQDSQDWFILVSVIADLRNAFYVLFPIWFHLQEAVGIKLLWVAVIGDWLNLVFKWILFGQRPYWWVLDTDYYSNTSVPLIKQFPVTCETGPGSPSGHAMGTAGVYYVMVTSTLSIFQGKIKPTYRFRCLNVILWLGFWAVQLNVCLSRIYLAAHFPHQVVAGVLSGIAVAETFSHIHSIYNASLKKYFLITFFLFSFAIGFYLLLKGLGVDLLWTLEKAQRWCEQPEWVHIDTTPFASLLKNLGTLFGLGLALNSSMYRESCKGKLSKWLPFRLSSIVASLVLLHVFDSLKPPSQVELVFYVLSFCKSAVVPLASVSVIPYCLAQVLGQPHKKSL
Method: (§1) The functional identity of the human G-6-Pase cDNA was studied in a manner similiar to that described above with the murine G-6-Pase. Detailed biochemical studies were performed on microsomal preparations isolated from COS-1 cells transiently transfected with the phG-6-Pase-1 cDNA and compared with activities in human liver microsomes.

[5] = molecular target: human G-6-Pase (Homo sapiens, UniProt P35575, A192T); conditions: read-out: Vanadate K1; phG-6-Pase-1-transfected COS-1 microsomes
Method: as §1

[6] = substrate: O=P(O)(O)OC[C@H]1OC(O)[C@@H](O)[C@@H](O)[C@@H]1O; assay: cells, lysate or membranes named; conditions: other: disrupted adult mouse liver microsomes; mean ± SEM; pH 6.5; 30.0 °C
[7] = substrate: O=P(O)(O)OC[C@H]1OC(O)[C@H](O)[C@@H](O)[C@@H]1O; assay: cells, lysate or membranes named; conditions: pH 6.5, 30.0 °C
[8] = pH profile of glucose-6-P phosphohydrolase activity in disrupted microsomes; format: biochemical, mouse
[9] = Carbamyl-P:glucose phosphotransferase activity in disrupted microsomes; format: biochemical, mouse; conditions: deoxycholate-disrupted microsomes, linear region of enzyme concentration curves
Method: Phosphotransferase activity was determined by a modification of the method described by Jorgenson and Nordlie, supra. Reaction mixture (10 μl) contained 100 mM HEPES buffer, pH 6.5, 50 mM glucose, […] D-glucose (10^5 cpm/reaction, 256 mCi/mmol, ICN Biochemicals, Irvine, Calif.), 4 mM carbamyl-P, and deoxycholate-disrupted microsomal proteins. […] The samples were then centrifuged at 10,000×g for 5 min, and 2 to 4 μl of supernatant applied to a PEI-cellulose plate (J. T. Baker, Inc., Phillipsburg, N.J.). Glucose-6-P was separated from glucose by thin-layer chromatography developed in water. Spots were quantitated on an AMBIS Radioanalytic Imaging System (San Diego, Calif.).

[10] = Thermal stability of glucose-6-P phosphohydrolase activity (37° C., 10 min, pH 5.0); format: biochemical; conditions: for Thermal Stability (enzyme activities remaining after heat treatment): deoxycholate (0.2%) disrupted microsomes
Method: Hepatic G-6-Pase is characterized by its high thermal lability; G-6-Pase is completely inactivated by incubating the microsomal preparation (or homogenate) at pH 5.0 for 10 min at 37° C., Hers, H. G., in Advances in Metabolic Disorders Vol 1 (eds Levine, R., Luft, L.), 1-44 (Academic Press, London, 1964).

[11] = Phosphohydrolase activity of site-directed human G-6-Pase mutants in transfected cells; format: biochemical; conditions: arginine to cysteine substitution; pSVL constructs in transfected cells
Source text: The two outside PCR primers were 01 (5'-[…]-3' (Seq. ID No.:29), nucleotides 77 to 96) and 02 (5'-[…]-3' (Seq. ID No.:30), nucleotides 1153 to 1130). […] 01 and 02 contain an additional XhoI or XbaI linker, respectively. […] The amplified fragments were digested with XhoI and XbaI and ligated into a pSVL vector. All constructs were confirmed by DNA sequencing.

[O]=[V]([OH])([OH])[OH] [Vanadate]
Ki [1]: 330 to 340 µM
Ki [2]: 1500 nM
Ki [3]: 330 µM
Ki [4]: 1.61 mM
Ki [5]: 1.68 mM

B1: mouse liver microsomal G-6-Pase (Mus musculus) (protein)
chain: T1 sequence (P35576 1-357)
Km [6]: 670 µM
Km ([7]; other: disrupted adult mouse liver microsomes, mean ± SEM): 0.68 mM
Km ([7]; other: intact adult mouse liver microsomes): 3.3 mM

B2: pSVLmG-6-Pase-Transfacted COS: recombinant murine G-6-Pase in microsomes of COS-1 cells transfected with pSVLmG-6-Pase (protein, UniProt P35576 1-357, looked up)
Glucose-6-phosphatase …: T1 sequence (P35576 1-357)
modifications: in COS-1 microsomes
notes: recombinant murine G-6-Pase in microsomes of COS-1 cells transfected with pSVLmG-6-Pase
pH optimum of glucose-6-P phosphohydrolase activity [8]: ~6.5
Phosphotransferase, Carbamyl-P: Glucose [9]: 0.22 μmol/min/mg of microsomal prot
Thermal Stability (enzyme activities remaining after heat treatment) ([10]; 37° C. for 10 min at pH 5.0, murine study): 1.6%
glucose-6-P phosphohydrolase activity after incubation at 37° C. for 10 min at pH 5.0 (in words) ([10]; murine study): abolished

B3: human G-6-Pase (Homo sapiens; A192T) (protein)
chain: MEEGMNVLHDFGIQSTHYLQVNYQDSQDWFILVSVIADLRNAFYVLFPIWFHLQEAVGIKLLWVAVIGDWLNLVFKWILFGQRPYWWVLDTDYYSNTSVPLIKQFPVTCETGPGSPSGHAMGTAGVYYVMVTSTLSIFQGKIKPTYRFRCLNVILWLGFWAVQLNVCLSRIYLAAHFPHQVVAGVLSGIAVTETFSHIHSIYNASLKKYFLITFFLFSFAIGFYLLLKGLGVDLLWTLEKAQRWCEQPEWVHIDTTPFASLLKNLGTLFGLGLALNSSMYRESCKGKLSKWLPFRLSSIVASLVLLHVFDSLKPPSQVELVFYVLSFCKSAVVPLASVSVIPYCLAQVLGQPHKKSL
Km ([7]; other: phG-6-Pase-1-transfected COS-1 microsomes): 1.77 ± 0.13 mM

B4: human liver microsomal G-6-Pase (Homo sapiens) (protein)
chain: B3 chain with T192A
Km ([7]; other: human liver microsomes): 1.71 ± 0.11 mM

B5: phG-6-Pase-1-COS: recombinant human G-6-Pase in microsomes of COS-1 cells transiently transfected with phG-6-Pase-1 cDNA (protein, UniProt P35575 1-357, looked up)
Glucose-6-phosphatase …: B3 chain with T192A
modifications: in COS-1 microsomes
notes: recombinant human G-6-Pase in microsomes of COS-1 cells transiently transfected with phG-6-Pase-1 cDNA
Thermal Stability (enzyme activities remaining after heat treatment) ([10]; 10 min at 37° C., 50 mM cacodylate buffer pH 5.0, human study): 6.0%
glucose-6-P phosphohydrolase activity after incubation at 37° C. for 10 min at pH 5.0 (in words) ([10]; human study): virtually abolished

B6: G-6-Pase-Cys^83: human G-6-Pase mutant, arginine 83 changed to cysteine (protein, UniProt P35575 1-357, looked up, variant R83C)
Glucose-6-phosphatase …: B3 chain with R83C, T192A
G-6-Pase phosphohydrolase activity of mutant [11]: abolished

B7: G-6-Pase-Cys^295: human G-6-Pase mutant, arginine 295 changed to cysteine (protein, UniProt P35575 1-357, looked up, variant R295C)
Glucose-6-phosphatase …: B3 chain with T192A, R295C
G-6-Pase phosphohydrolase activity of mutant [11]: abolished
